The source of these data is US20260258084A1, “New Peptides as Selective IL-23 Receptor Antagonists” (Sanofi, priority 2022, published 2026).

To fix the notation:
B1: Compound of SEQ ID NO: 43 (peptide)
peptide: [Ava]CNT[Trp(7-Me)]QC[Yde][2Nal][Aib]ESH-NH2
modifications: lactam N-11; disulfide 2-7
SMILES: Cc1cccc2c(C[C@@H]3NC(=O)[C@H]([C@@H](C)O)NC(=O)[C@H](CC(N)=O)NC(=O)[C@@H]4CSSC[C@H](NC(=O)[C@H](CCC(N)=O)NC3=O)C(=O)N[C@@H](Cc3ccc(OCCN(C)C)cc3)C(=O)N[C@@H](Cc3ccc5ccccc5c3)C(=O)NC(C)(C)C(=O)N[C@H](C(=O)N[C@@H](CO)C(=O)N[C@@H](Cc3c[nH]cn3)C(N)=O)CCC(=O)NCCCCC(=O)N4)c[nH]c12
B2: Compound of SEQ ID NO: 27 (peptide)
peptide: [Ava]CNTWQC[Yde][2Nal][αMeL]ENN-NH2
modifications: lactam N-11; disulfide 2-7
SMILES: CC(C)C[C@]1(C)NC(=O)[C@H](Cc2ccc3ccccc3c2)NC(=O)[C@H](Cc2ccc(OCCN(C)C)cc2)NC(=O)[C@@H]2CSSC[C@H](NC(=O)CCCCNC(=O)CC[C@@H](C(=O)N[C@@H](CC(N)=O)C(=O)N[C@@H](CC(N)=O)C(N)=O)NC1=O)C(=O)N[C@@H](CC(N)=O)C(=O)N[C@@H]([C@@H](C)O)C(=O)N[C@@H](Cc1c[nH]c3ccccc13)C(=O)N[C@@H](CCC(N)=O)C(=O)N2
B3: Compound of SEQ ID NO: 40 (peptide)
peptide: [Nmha]CNTWQC[Yde][2Nal][αMeL]DN[dL]-NH2
modifications: lactam N-11; disulfide 2-7
SMILES: CC(C)C[C@@H](NC(=O)[C@H](CC(N)=O)NC(=O)[C@@H]1CC(=O)N(C)CCCCCC(=O)N[C@H]2CSSC[C@H](NC(=O)[C@H](CCC(N)=O)NC(=O)[C@H](Cc3c[nH]c4ccccc34)NC(=O)[C@H]([C@@H](C)O)NC(=O)[C@H](CC(N)=O)NC2=O)C(=O)N[C@@H](Cc2ccc(OCCN(C)C)cc2)C(=O)N[C@@H](Cc2ccc3ccccc3c2)C(=O)N[C@@](C)(CC(C)C)C(=O)N1)C(N)=O
B4: Compound of SEQ ID NO: 57 (peptide)
peptide: [Ava]CNTWQC[Yde][2Nal][Aib]ENNI-NH2
modifications: lactam N-11; disulfide 2-7
SMILES: CC[C@H](C)[C@H](NC(=O)[C@H](CC(N)=O)NC(=O)[C@H](CC(N)=O)NC(=O)[C@@H]1CCC(=O)NCCCCC(=O)N[C@H]2CSSC[C@H](NC(=O)[C@H](CCC(N)=O)NC(=O)[C@H](Cc3c[nH]c4ccccc34)NC(=O)[C@H]([C@@H](C)O)NC(=O)[C@H](CC(N)=O)NC2=O)C(=O)N[C@@H](Cc2ccc(OCCN(C)C)cc2)C(=O)N[C@@H](Cc2ccc3ccccc3c2)C(=O)NC(C)(C)C(=O)N1)C(N)=O
notes: §1 lactam bridge; @2 disulfide bridge
B5: Compound of SEQ ID NO: 39 (peptide)
peptide: [Ahx]E[Ava]WQT[Phe(4-OMe)][2Nal][Aib]DNN-NH2
modifications: lactam N-10; ester 2-6
SMILES: COc1ccc(C[C@@H]2NC(=O)[C@H]3NC(=O)[C@H](CCC(N)=O)NC(=O)[C@H](Cc4c[nH]c5ccccc45)NC(=O)CCCCNC(=O)[C@H](CCC(=O)O[C@@H]3C)NC(=O)CCCCCNC(=O)C[C@@H](C(=O)N[C@@H](CC(N)=O)C(=O)N[C@@H](CC(N)=O)C(N)=O)NC(=O)C(C)(C)NC(=O)[C@H](Cc3ccc4ccccc4c3)NC2=O)cc1
B6: Compound of SEQ ID NO: 29 (peptide)
peptide: [Ava]C[εLys](Ac)WQC[Yde][2Nal][Aib]ENG-NH2
modifications: lactam N-10; disulfide 2-6; also: Cys2 carboxyl bonded to Lys3 epsilon-NH2 (isopeptide), Lys3 alpha-N acetylated
B7: Compound of SEQ ID NO: 34 (peptide)
peptide: [Nmapt]CKWQC[AEF][2Nal][Thp]EA[dL]-NH2
modifications: lactam N-10; disulfide 2-6; not fully specified (residue 3); printed as Nmapt(§1)-C(§3)(@2)-K[aAc](@3)-W-Q-C(@2)-Yae-Nal-Thp-E(§1)-A-(D-Leu)-NH2; reading uncertain; also: Cys2 carboxyl joined to Lys3 epsilon-NH2 (isopeptide bond)
B8: Compound of SEQ ID NO: 30 (peptide)
peptide: [Ava]C[εLys](Ac)WQC[Yde][2Nal][Thp]ENG-NH2
modifications: lactam N-10; disulfide 2-6; also: Cys2 carboxyl bonded to Lys3 epsilon-NH2 (isopeptide), Lys3 alpha-N acetylated
B9: Compound of SEQ ID NO: 3 (peptide)
peptide: [Ahx]CNTWQC[Phe(4-OMe)][2Nal][Aib]DNN-NH2
modifications: lactam N-11; disulfide 2-7
SMILES: COc1ccc(C[C@@H]2NC(=O)[C@@H]3CSSC[C@H](NC(=O)CCCCCNC(=O)C[C@@H](C(=O)N[C@@H](CC(N)=O)C(=O)N[C@@H](CC(N)=O)C(N)=O)NC(=O)C(C)(C)NC(=O)[C@H](Cc4ccc5ccccc5c4)NC2=O)C(=O)N[C@@H](CC(N)=O)C(=O)N[C@@H]([C@@H](C)O)C(=O)N[C@@H](Cc2c[nH]c4ccccc24)C(=O)N[C@@H](CCC(N)=O)C(=O)N3)cc1
B10: Compound of SEQ ID NO: 33 (peptide)
peptide: [Ava]C[εLys](Ac)WQC[Yde][2Nal][Thp]EA[dL]-NH2
modifications: lactam N-10; disulfide 2-6; also: Cys2 carboxyl bonded to Lys3 epsilon-NH2 (isopeptide), Lys3 alpha-N acetylated
B11: Compound of SEQ ID NO: 4 (peptide)
peptide: [Ava]CNTWQC[Phe(4-OMe)][2Nal][Aib]ENG-NH2
modifications: lactam N-11; disulfide 2-7
SMILES: COc1ccc(C[C@@H]2NC(=O)[C@@H]3CSSC[C@H](NC(=O)CCCCNC(=O)CC[C@@H](C(=O)N[C@@H](CC(N)=O)C(=O)NCC(N)=O)NC(=O)C(C)(C)NC(=O)[C@H](Cc4ccc5ccccc5c4)NC2=O)C(=O)N[C@@H](CC(N)=O)C(=O)N[C@@H]([C@@H](C)O)C(=O)N[C@@H](Cc2c[nH]c4ccccc24)C(=O)N[C@@H](CCC(N)=O)C(=O)N3)cc1
B12: Compound of SEQ ID NO: 31 (peptide)
peptide: [Ava]C[εLys](Ac)WQC[Yde][2Nal][αMeL]ENG-NH2
modifications: lactam N-10; disulfide 2-6; also: Cys2 carboxyl bonded to Lys3 epsilon-NH2 (isopeptide), Lys3 alpha-N acetylated
B13: Compound of SEQ ID NO: 32 (peptide)
peptide: [Ava]C[εLys](Ac)WQC[Yde][2Nal][Aib]EAG-NH2
modifications: lactam N-10; disulfide 2-6; also: Cys2 carboxyl bonded to Lys3 epsilon-NH2 (isopeptide), Lys3 alpha-N acetylated
B14: Compound of SEQ ID NO: 44 (peptide)
peptide: [Nmapt]CKWQC[AEF][2Nal][αMeL]EA[dL]-NH2
modifications: lactam N-10; disulfide 2-6; not fully specified (residue 3); printed as Nmapt(§1)-C(§3)(@2)-K[aAc](@3)-W-Q-C(@2)-Yae-Nal-Mle-E(§1)-A-(D-Leu)-NH2; reading uncertain; also: Cys2 carboxyl joined to Lys3 epsilon-NH2 (isopeptide bond)
B15: Compound of SEQ ID NO: 26 (peptide)
peptide: [Ava]CNTWQC[Yde][2Nal][Thp]ENN-NH2
modifications: lactam N-11; disulfide 2-7
SMILES: C[C@@H](O)[C@@H]1NC(=O)[C@H](CC(N)=O)NC(=O)[C@@H]2CSSC[C@H](NC(=O)[C@H](CCC(N)=O)NC(=O)[C@H](Cc3c[nH]c4ccccc34)NC1=O)C(=O)N[C@@H](Cc1ccc(OCCN(C)C)cc1)C(=O)N[C@@H](Cc1ccc3ccccc3c1)C(=O)NC1(CCOCC1)C(=O)N[C@H](C(=O)N[C@@H](CC(N)=O)C(=O)N[C@@H](CC(N)=O)C(N)=O)CCC(=O)NCCCCC(=O)N2

Starred links: 1 amine or outer side, 2 acyl side, 3 side chain; linkers in the order of their positions; H or OH if unused. Positions of bridges follow the written chain, without caps; N, C: chain ends. Non-standard residues stand in square brackets, D forms with d. Yde = (2S)-2-amino-3-[4-[2-(dimethylamino)ethoxy]phenyl]propanoic acid, CN(C)CCOc1ccc(C[C@H](N[*:1])C(=O)[*:2])cc1; NdmK = (2S)-6-amino-2-(dimethylamino)hexanoic acid, CN(C)[C@@H](CCCCN[*:3])C(=O)[*:2]; Nmha = 6-(methylamino)hexanoic acid, CN(CCCCCC(=O)[*:2])[*:1]; Phe(4-OMe) = COc1ccc(C[C@H](N[*:1])C(=O)[*:2])cc1; Trp(7-Me) = Cc1cccc2c(C[C@H](N)C(=O)O)c[nH]c12; αMeLys(Me2) = CN(C)CCCC[C@](C)(N)C(=O)O; 2Nal = N[C@@H](Cc1ccc2ccccc2c1)C(=O)O; εLys = N[C@@H](CCCCN[*:1])C(=O)[*:2]; AEF = NCCOc1ccc(C[C@H](N)C(=O)O)cc1; 3Pal = N[C@@H](Cc1cccnc1)C(=O)O; Dad = desamino-aspartamic acid; Lys(Me) = CNCCCC[C@H](N)C(=O)O; αMeL = CC(C)C[C@](C)(N)C(=O)O; Nmapt = not defined here; Thp = NC1(C(=O)O)CCOCC1; Aib = CC(C)(N)C(=O)O; Ahx = NCCCCCC(=O)O; Ava = NCCCCC(=O)O; Sar = CNCC(=O)O

The target in the assay is T1, IL-23 receptor on the surface of HEK-Blue IL-23 cells (UniProt Q5VWK5 24-629, limits assumed).
T1 sequence (looked up): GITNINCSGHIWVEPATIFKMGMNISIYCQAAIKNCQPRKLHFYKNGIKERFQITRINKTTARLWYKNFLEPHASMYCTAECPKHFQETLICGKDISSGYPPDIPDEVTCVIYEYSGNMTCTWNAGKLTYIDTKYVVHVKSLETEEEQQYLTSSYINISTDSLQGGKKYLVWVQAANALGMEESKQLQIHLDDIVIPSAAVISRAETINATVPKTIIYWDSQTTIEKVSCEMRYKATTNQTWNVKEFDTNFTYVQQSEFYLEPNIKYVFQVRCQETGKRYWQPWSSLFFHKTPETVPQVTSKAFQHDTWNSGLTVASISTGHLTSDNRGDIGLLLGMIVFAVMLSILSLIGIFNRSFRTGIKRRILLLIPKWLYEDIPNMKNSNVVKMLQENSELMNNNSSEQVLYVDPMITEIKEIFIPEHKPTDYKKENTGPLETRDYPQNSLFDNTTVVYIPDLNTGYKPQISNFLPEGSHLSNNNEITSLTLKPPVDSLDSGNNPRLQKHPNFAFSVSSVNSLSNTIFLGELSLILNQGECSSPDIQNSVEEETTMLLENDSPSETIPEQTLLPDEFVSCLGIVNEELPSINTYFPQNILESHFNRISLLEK
Briefly: cell-based or functional assay.
As for B1, the “pSTAT3 (nM)” value stood at 1.31 nM.

In the case of B2, the “pSTAT3 (nM)” value stood at 1.71 nM.

Consider B3, for which the “pSTAT3 (nM)” value stood at 50.8 nM. With [Ava]CNTWK(Ac)C[Yde][2Nal][Aib]ENNI-NH2 (lactam N-11; disulfide 2-7; also: places amidation at position 13, §1 lactam bridge; @2 disulfide bridge) [Compound of SEQ ID NO: 38] the figure was 11.9 nM; with B4, 5.5 nM. As for B5, the figure is 26.4 nM; as for B6, 8.16 nM; as for [Ava]CNTWK(Ac)C[Yde][2Nal][Aib]EN[3Pal]I-NH2 (lactam N-11; disulfide 2-7; also: places amidation at position 13) [Compound of SEQ ID NO: 37], 2 nM. As for B7, the figure is 13.3 nM; as for B8, 5.41 nM; as for B9, 17.2 nM. As to [Ava]C[NdmK]WK(Ac)C[Yde][2Nal][αMeLys(Me2)]EN[3Pal][Sar]-NH2 (lactam N-10; disulfide 2-6) [Compound of SEQ ID NO: 36], the “pSTAT3 (nM)” value was 13.9 nM. With B10 the figure was 53.8 nM; with B11, 34.8 nM; with B12, 5.23 nM. Consider B13, for which the “pSTAT3 (nM)” value came out at 20.5 nM. As to [Dad]CNTWQC[Yde][2Nal][Aib][Lys(Me)]NN-NH2 (lactam N-11; disulfide 2-7) [Compound of SEQ ID NO: 25], the “pSTAT3 (nM)” value is 39.2 nM. With B14 the figure was 42.5 nM; with B15, 3.37 nM.
